From paper doi:10.1101/2022.04.25.489347 come the findings set out here.

Assay [1] addresses AtFKBP43 (1-136) (Arabidopsis thaliana) (UniProt F4J9Q6). The assay is described as follows: pull-down.
Assay [2] deals with AtFKBP43 (1-164) (Arabidopsis thaliana) (UniProt F4J9Q6). The assay is described as follows: pull-down.
Chain of AtFKBP43 (1-164) (Arabidopsis thaliana) (F4J9Q6 1-164): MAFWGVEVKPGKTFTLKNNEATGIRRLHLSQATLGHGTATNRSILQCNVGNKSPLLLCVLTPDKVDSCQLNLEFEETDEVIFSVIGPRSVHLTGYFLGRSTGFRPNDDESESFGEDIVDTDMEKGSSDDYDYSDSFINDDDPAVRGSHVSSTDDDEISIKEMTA

Chain of AtFKBP43 (1-136) (Arabidopsis thaliana) (F4J9Q6 1-136): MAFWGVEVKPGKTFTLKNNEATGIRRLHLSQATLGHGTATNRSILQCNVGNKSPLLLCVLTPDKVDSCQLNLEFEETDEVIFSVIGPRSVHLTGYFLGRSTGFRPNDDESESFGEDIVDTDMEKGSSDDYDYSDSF

Turning to “H2A/H2B dimer (from UniProt P06897 1-130; P02281 1-126) (complex)”, the NaCl concentration up to which the complex was stable in assay [1] and in assay [2] was 0.3 M in each case.

In the case of “H3/H4 tetramer (from UniProt P84233 1-136; P62799 1-103) (complex)”, the NaCl concentration up to which the complex was stable in assay [1] and in assay [2] was 1 M throughout.
